According to PMC7277991, “Chemoenzymatic Synthesis and Biological Evaluation for Bioactive Molecules Derived from Bacterial Benzoyl Coenzyme A Ligase and Plant Type III Polyketide Synthase” (Biomolecules, 2020):

Legend:
[1] = target: T1, benzoate CoA ligase (BadA) (Rhodopseudomonas palustris, UniProt Q6NC13, H333A/I334A, form not given); assay: X-ray crystal structure; format: binding; conditions: acyl-adenylate intermediate in active site; thiolation conformation, no CoA
T1 construct: recombinant in E. coli BL21 (DE3), Ni-NTA purified
T1 sequence (Q6NC13 entry or part of it H333A/I334A, form open): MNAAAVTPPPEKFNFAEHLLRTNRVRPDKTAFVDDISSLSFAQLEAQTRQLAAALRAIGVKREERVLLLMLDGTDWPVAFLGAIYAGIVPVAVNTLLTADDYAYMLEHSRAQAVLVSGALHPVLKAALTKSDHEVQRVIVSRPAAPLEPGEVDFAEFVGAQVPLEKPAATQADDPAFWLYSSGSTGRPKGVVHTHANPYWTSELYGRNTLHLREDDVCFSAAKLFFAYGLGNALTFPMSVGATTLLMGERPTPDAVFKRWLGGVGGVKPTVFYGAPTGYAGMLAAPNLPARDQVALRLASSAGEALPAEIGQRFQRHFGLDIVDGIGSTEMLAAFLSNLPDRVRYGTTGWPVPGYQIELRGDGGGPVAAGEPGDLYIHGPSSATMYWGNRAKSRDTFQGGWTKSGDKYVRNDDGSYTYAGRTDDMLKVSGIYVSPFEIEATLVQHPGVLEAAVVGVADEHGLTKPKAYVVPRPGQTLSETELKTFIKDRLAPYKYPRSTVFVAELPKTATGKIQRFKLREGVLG

[2] = target: T2, Malonyl-CoA synthetase from Rhizobium triofli (RtMCS) (Rhizobium leguminosarum, UniProt Q9ZIP5); assay: HPLC and LC-ESI-MS of malonyl-CoA; format: biochemical; conditions: 5 mM ATP, 2 mM CoA, 5 mM Mg2+, pH 7.5, room temperature; ATP regeneration
T2 construct: gene matB; recombinant in E. coli, Ni-NTA purified
T2 sequence (Q9ZIP5 1-504): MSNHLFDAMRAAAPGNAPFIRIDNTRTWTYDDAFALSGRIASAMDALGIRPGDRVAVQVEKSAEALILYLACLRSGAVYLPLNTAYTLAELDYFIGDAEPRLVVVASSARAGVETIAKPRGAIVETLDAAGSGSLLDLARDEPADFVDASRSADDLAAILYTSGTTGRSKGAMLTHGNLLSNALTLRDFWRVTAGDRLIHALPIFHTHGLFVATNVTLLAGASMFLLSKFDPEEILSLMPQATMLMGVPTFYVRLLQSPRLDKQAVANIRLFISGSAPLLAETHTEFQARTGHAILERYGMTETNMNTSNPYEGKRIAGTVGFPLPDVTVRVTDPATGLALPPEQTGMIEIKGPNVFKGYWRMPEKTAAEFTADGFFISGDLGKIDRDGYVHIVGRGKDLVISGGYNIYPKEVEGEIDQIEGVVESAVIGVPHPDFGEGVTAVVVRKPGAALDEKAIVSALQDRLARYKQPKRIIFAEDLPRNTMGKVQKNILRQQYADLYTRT

[3] = substrate: CC(C)(COP(=O)(O)OP(=O)(O)OC[C@H]1O[C@@H](n2cnc3c(N)ncnc32)[C@H](O)[C@@H]1OP(=O)(O)O)[C@@H](O)C(=O)NCCC(=O)NCCSC(=O)c1cnc(Cl)s1; assay: HPLC product formation, Michaelis-Menten fit; format: biochemical, Pinus sylvestris; conditions: 60 μM malonyl-CoA, 100 mM potassium phosphate pH 7.4, 1 mM EDTA, 30 °C
Text: (§1) HPLC product formation, Michaelis-Menten fit on stilbene synthase (STS) from Pinus sylvestris

[4] = substrate: CC(C)(COP(=O)(O)OP(=O)(O)OC[C@H]1O[C@@H](n2cnc3c(N)ncnc32)[C@H](O)[C@@H]1OP(=O)(O)O)[C@@H](O)C(=O)NCCC(=O)NCCSC(=O)CCCCc1ccc(F)cc1; assay: HPLC product formation, Michaelis-Menten fit; format: biochemical, Pinus sylvestris; conditions: 60 μM malonyl-CoA, 100 mM potassium phosphate pH 7.4, 1 mM EDTA, 30 °C
Text: as §1

[5] = substrate: CC(C)(COP(=O)(O)OP(=O)(O)OC[C@H]1O[C@@H](n2cnc3c(N)ncnc32)[C@H](O)[C@@H]1OP(=O)(O)O)[C@@H](O)C(=O)NCCC(=O)NCCSC(=O)CCCCCCc1ccccc1; assay: HPLC product formation, Michaelis-Menten fit; format: biochemical, Pinus sylvestris; conditions: 60 μM malonyl-CoA, 100 mM potassium phosphate pH 7.4, 1 mM EDTA, 30 °C
Text: as §1

[6] = substrate: CC(C)(COP(=O)(O)OP(=O)(O)OC[C@H]1O[C@@H](n2cnc3c(N)ncnc32)[C@H](O)[C@@H]1OP(=O)(O)O)[C@@H](O)C(=O)NCCC(=O)NCCSC(=O)CCCCCc1ccccc1; assay: HPLC product formation, Michaelis-Menten fit; format: biochemical, Pinus sylvestris; conditions: 60 μM malonyl-CoA, 100 mM potassium phosphate pH 7.4, 1 mM EDTA, 30 °C
Text: as §1

[7] = substrate: CC(C)(COP(=O)(O)OP(=O)(O)OC[C@H]1O[C@@H](n2cnc3c(N)ncnc32)[C@H](O)[C@@H]1OP(=O)(O)O)[C@@H](O)C(=O)NCCC(=O)NCCSC(=O)Cc1ccc(-c2ccccc2)cc1; assay: HPLC product formation, Michaelis-Menten fit; format: biochemical, Pinus sylvestris; conditions: 60 μM malonyl-CoA, 100 mM potassium phosphate pH 7.4, 1 mM EDTA, 30 °C
Text: as §1

[8] = substrate: Cc1ncsc1C(=O)SCCNC(=O)CCNC(=O)[C@H](O)C(C)(C)COP(=O)(O)OP(=O)(O)OC[C@H]1O[C@@H](n2cnc3c(N)ncnc32)[C@H](O)[C@@H]1OP(=O)(O)O; assay: HPLC product formation, Michaelis-Menten fit; format: biochemical, Pinus sylvestris; conditions: 60 μM malonyl-CoA, 100 mM potassium phosphate pH 7.4, 1 mM EDTA, 30 °C
Text: as §1

[9] = substrate: Cc1ncc(C(=O)SCCNC(=O)CCNC(=O)[C@H](O)C(C)(C)COP(=O)(O)OP(=O)(O)OC[C@H]2O[C@@H](n3cnc4c(N)ncnc43)[C@H](O)[C@@H]2OP(=O)(O)O)s1; assay: HPLC product formation, Michaelis-Menten fit; format: biochemical, Pinus sylvestris; conditions: 60 μM malonyl-CoA, 100 mM potassium phosphate pH 7.4, 1 mM EDTA, 30 °C
Text: as §1

Nc1ncnc2c1ncn2[C@@H]1O[C@H](COP(=O)(O)OC(=O)c2cnc(Cl)s2)[C@@H](O)[C@H]1O [2-chloro-1,3-thiazole-5-carboxyl-AMP]
X-ray crystal structure [1]: in complex with a 2-chloro-1,3-thiazole-5-carboxyl-AMP (2Cl5C-AMP) (PDB entry 6M2U)

O=C(O)CC(=O)O [malonic acid]
HPLC and LC-ESI-MS of malonyl-CoA [2]: Malonyl-CoA was chemo-enzymatically prepared from malonate, CoA, and ATP using RtMCS

Cc1ncc(C(=O)OP(=O)(O)OC[C@H]2O[C@@H](n3cnc4c(N)ncnc43)[C@H](O)[C@@H]2O)s1 [2-methylthiazole-5-carboxyl-AMP]
X-ray crystal structure [1]: 2-methylthiazole-5-carboxyl-AMP (2M5C-AMP) (PDB entry 6M2T) intermediate were obtained

B1: stilbene synthase (STS) from Pinus sylvestris (Pinus sylvestris) (protein)
chain: MGGVDFEGFRKLQRADGFASILAIGTANPPNAVDQSTYPDFYFRITGNEHNTELKDKFKRICERSAIKQRYMYLTEEILKKNPDVCAFVEVPSLDARQAMLAMEVPRLAKEAAEKAIQEWGQSKSGITHLIFCSTTTPDLPGADFEVAKLLGLHPSVKRVGVFQHGCFAGGTVLRMAKDLAENNRGARVLVICSETTAVTFRGPSETHLDSLVGQALFGDGASALIVGADPIPQVEKACFEIVWTAQTVVPNSEGAIGGKVREVGLTFQLKGAVPDLISANIENCMVEAFSQFKISDWNKLFWVVHPGGRAILDRVEAKLNLDPTKLIPTRHVMSEYGNMSSACVHFILDQTRKASLQNGCSTTGEGLEMGVLFGFGPGLTIETVVLKSVPIQ
notes: recombinant in E. coli BL21 (DE3), Ni-NTA purified, size-exclusion
Km [3]: 12.77 µM
kcat [3]: 0.00317 s⁻¹
Km [4]: 4.15 µM
Km [5]: 29.42 µM
kcat [5]: 0.0045 s⁻¹
Km [6]: 43.89 µM
Km [7]: 23.24 µM
kcat [7]: 0.0035 s⁻¹
Km [8]: 3.82 µM
kcat [8]: 0.00267 s⁻¹
Km [9]: 3.87 µM
kcat [9]: 0.000167 s⁻¹
